# Reference: patent US20140274782A1 (Stanford University, published 2014)
# T1: GAL-galanin prepropeptide (GAL) (human, UniProt P22466 1-123, limits assumed)
# T1 sequence (looked up): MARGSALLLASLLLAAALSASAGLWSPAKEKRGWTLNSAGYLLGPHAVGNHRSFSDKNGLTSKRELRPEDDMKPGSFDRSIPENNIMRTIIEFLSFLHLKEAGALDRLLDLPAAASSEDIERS
# T2: GHRL-ghrelin/obestatin preprohormone (GHRL) (human, UniProt Q9UBU3 1-117, limits assumed)
# T2 sequence (looked up): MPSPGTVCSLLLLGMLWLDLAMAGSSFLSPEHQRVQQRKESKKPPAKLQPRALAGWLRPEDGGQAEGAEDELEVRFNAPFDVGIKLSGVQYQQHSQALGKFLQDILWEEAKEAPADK
# T3: RHBDD1-rhomboid domain containing 1 (RHBDD1) (human, UniProt Q8TEB9 1-315, limits assumed)
# T3 sequence (looked up): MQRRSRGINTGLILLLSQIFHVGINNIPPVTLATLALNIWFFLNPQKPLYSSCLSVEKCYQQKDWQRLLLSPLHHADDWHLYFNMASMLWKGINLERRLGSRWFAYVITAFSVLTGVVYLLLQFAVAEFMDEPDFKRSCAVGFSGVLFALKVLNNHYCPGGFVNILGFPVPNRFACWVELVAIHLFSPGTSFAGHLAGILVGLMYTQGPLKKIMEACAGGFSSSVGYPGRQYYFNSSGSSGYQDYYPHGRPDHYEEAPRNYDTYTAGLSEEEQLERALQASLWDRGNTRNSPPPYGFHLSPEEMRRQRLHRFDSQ
# T4: SSR4-signal sequence receptor, delta (translocon-associated protein delta) (SSR4) (human, UniProt P51571 24-173, limits assumed)
# T4 sequence (looked up): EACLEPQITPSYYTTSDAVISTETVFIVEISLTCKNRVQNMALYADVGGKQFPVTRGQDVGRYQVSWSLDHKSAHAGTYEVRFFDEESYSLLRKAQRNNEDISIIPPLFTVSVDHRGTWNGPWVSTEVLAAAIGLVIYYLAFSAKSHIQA
# T5: GNPTAB-N-acetylglucosamine-1-phosphate transferase, alpha and beta subunits (GNPTAB) (human, UniProt Q3T906 1-1256, limits assumed)
# T5 sequence (looked up): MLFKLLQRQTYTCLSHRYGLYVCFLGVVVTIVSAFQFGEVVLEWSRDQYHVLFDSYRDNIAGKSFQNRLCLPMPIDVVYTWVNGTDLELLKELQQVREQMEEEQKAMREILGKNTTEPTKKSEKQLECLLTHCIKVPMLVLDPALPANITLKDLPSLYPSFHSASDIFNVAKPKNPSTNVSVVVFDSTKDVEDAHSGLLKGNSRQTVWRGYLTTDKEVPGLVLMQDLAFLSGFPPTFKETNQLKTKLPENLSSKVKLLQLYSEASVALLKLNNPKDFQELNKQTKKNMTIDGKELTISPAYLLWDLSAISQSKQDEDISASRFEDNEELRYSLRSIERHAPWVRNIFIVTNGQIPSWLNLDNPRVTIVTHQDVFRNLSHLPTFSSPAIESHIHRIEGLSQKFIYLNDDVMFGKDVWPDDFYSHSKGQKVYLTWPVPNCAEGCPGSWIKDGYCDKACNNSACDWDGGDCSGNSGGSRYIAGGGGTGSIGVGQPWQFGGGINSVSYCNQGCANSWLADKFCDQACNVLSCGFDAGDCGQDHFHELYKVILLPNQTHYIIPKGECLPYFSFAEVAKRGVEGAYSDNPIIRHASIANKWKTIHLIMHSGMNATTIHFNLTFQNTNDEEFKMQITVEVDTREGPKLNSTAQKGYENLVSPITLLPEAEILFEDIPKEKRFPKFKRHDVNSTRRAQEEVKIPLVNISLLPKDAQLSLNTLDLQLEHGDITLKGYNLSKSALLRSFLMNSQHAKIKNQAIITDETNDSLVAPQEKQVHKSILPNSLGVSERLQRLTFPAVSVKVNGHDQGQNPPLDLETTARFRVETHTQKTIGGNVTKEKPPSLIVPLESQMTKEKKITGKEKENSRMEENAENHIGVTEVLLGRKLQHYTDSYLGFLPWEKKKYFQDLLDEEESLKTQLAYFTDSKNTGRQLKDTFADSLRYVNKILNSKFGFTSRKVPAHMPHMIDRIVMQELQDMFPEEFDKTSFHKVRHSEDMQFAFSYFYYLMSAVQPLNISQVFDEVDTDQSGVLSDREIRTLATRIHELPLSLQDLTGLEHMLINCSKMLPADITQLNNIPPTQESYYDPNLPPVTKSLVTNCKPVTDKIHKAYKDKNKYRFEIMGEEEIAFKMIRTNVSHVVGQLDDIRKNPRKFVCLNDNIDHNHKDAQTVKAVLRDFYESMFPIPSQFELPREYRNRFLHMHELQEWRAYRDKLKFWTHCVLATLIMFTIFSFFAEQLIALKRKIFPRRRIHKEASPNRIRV
# T6: STK17B-Serine/threonine-protein kinase 17B (human, UniProt O94768 1-372)
# T6 sequence (looked up): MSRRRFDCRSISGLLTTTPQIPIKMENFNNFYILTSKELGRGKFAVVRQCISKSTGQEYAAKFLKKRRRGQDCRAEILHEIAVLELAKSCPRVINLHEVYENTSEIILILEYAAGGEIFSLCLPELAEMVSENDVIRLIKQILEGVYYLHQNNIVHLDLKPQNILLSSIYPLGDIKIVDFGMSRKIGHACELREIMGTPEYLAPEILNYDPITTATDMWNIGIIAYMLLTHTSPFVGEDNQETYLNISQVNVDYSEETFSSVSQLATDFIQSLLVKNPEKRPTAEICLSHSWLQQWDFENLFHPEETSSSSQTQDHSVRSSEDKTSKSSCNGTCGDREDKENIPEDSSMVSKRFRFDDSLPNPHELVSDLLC
# B1: 3× Flag-3×MBT (designed binder)
# chain: EEWSSSQPATGEKKECWSWESYLEEQKAITAPVSLFQDSQAVTHNKNGFKLGMKLEGIDPQHPSMYFILTVAEVCGYRLRLHFDGYSECHDFWVNANSPDIHPAGWFEKTGHKLQPPKGYKEEEFSWSQYLRSTRAQAAPKHLFVSQSHSPPPLGFQVGMKLEAVDRMNPSLVCVASVTDVVDSRFLVHFDNWDDTYDYWCDPSSPYIHPVGWCQKQGKPLTPPQDYPDPDNFCWEKYLEETGASAVPTWAFKVRPPHSFLVNMKLEAVDRRNPALIRVASVEDVEDHRIKIHFDGWSHGYDFWIDADHPDIHPAGWCSKTGHPLQPPLGPREPSSASPGG
# notes: also called Flag-tagged 3×MBT; 3xFlag-3xMBT; not shown: made by PreScission cleavage of GST-3× Flag-3×MBT
# Legend:
# [1] = molecular target: T1, GAL-galanin prepropeptide (GAL); experiment: ProtoArray, GST-treated control array
# Method: (§1) Briefly, a ProtoArray (Invitrogen, version 5.0) was incubated overnight with 50 μg of GST or recombinant GSTtagged G9a SET domain and the cofactor SAM.
# (§2) Arrays were analyzed using GenePix Pro 6.1 software (Molecular Devices) and feature values were assigned to proteins using the array list provided by Invitrogen. We designated the following criteria for “hits”: GST array signal-to-noise ratio (SNR) less than or equal to 1.5, G9a array SNR greater than or equal to 10, and a difference between the G9a array SNR and the GST array SNR of greater than or equal to 12. Hits were individually visually validated. Proteins were removed from the list of potential substrates if irregular array features appeared to interfere with the array spots or SNR calculations.
# [2] = molecular target: LOC400500, G9a-methylated (human); experiment: ProtoArray methylated with G9a SET domain
# Method: as §1, §2
# (§3) Protein arrays bearing almost 9500 recombinant human proteins were methylated using GST-tagged recombinant G9a SET domain or GST alone as a control as shown in FIG. 4. […] Results were filtered for proteins scoring a GST array signal-to-noise ratio (SNR) less than or equal to 1.5, a G9a array SNR greater to or equal to 10, and a difference between the G9a and GST SNRs of greater than or equal to 12. Subsequent proteins were individually inspected for irregular array features.
# [3] = molecular target: cDNA clone IMAGE:4623222 product, G9a-methylated (human); experiment: ProtoArray methylated with G9a SET domain
# Method: as §1, §2, §3
# [4] = molecular target: LOC145788, G9a-methylated (human); experiment: ProtoArray methylated with G9a SET domain
# Method: as §1, §2, §3
# MGC4473, G9a-methylated = MGC4473, G9a-methylated (human); experiment: ProtoArray methylated with G9a SET domain
# Method: as §1, §2, §3
# [5] = molecular target: T2, GHRL-ghrelin/obestatin preprohormone …; experiment: ProtoArray, GST-treated control array;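 also: human protein microarray (about 9500 recombinant proteins) incubated overnight with GST alone plus SAM cofactor as the negative control for G9a SET domain methylation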
# [6] = molecular target: T3, RHBDD1-rhomboid domain containing 1 …; experiment: ProtoArray, GST-treated control array;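 also: human protein microarray (about 9500 recombinant proteins) incubated overnight with GST alone plus SAM cofactor as the negative control for G9a SET domain methylation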
# CTSZ-Cathepsin Z = CTSZ-Cathepsin Z (human, UniProt Q9UBR2 24-303, limits assumed); experiment: ProtoArray, GST-treated control array;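 also: human protein microarray (about 9500 recombinant proteins) incubated overnight with GST alone plus SAM cofactor as the negative control for G9a SET domain methylation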
# [7] = molecular target: T4, SSR4-signal sequence receptor, delta …; experiment: ProtoArray, GST-treated control array;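 also: human protein microarray (about 9500 recombinant proteins) incubated overnight with GST alone plus SAM cofactor as the negative control for G9a SET domain methylation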
# [8] = molecular target: T5, GNPTAB-N-acetylglucosamine-1-phosphate …; experiment: ProtoArray, GST-treated control array
# [9] = molecular target: T6, STK17B-Serine/threonine-protein kinase …; experiment: ProtoArray, GST-treated control array
# Sequence of CTSZ-Cathepsin Z (Q9UBR2 24-303 limits assumed): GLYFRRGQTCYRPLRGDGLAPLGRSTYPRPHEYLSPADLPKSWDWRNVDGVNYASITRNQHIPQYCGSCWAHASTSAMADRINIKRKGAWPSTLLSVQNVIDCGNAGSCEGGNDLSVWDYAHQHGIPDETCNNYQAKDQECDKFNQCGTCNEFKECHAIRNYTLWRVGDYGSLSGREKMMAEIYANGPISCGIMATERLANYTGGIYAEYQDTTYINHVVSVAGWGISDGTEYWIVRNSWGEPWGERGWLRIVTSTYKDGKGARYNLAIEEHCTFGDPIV
binder,measurement,setting,value
B1,binding result,[1],no binding (tested: GST array SNR <= 1.5)
same,G9a Average SNR,[2],29
same,G9a Average SNR,[3],18.8
same,G9a Average SNR,[4],14.1
same,G9a Average SNR,"MGC4473, G9a-methylated",21.7
same,GST Average SNR,[5],0.402
same,GST Average SNR,[6],-0.11
same,GST Average SNR,CTSZ-Cathepsin Z,1.28
same,GST Average SNR,[7],1.33
same,GST Average SNR,[8],1.15
same,GST Average SNR,[9],0.575
